In data set [1] the target is T1, epithelial sodium channel (ENaC) (Xenopus laevis, UniProt P51167+P51169+P51171).
T1 construct: expressed in transfected cells; host or cells: Xenopus laevis oocytes (co-expression with Sgk)
T1 sequence (P51167 1-632): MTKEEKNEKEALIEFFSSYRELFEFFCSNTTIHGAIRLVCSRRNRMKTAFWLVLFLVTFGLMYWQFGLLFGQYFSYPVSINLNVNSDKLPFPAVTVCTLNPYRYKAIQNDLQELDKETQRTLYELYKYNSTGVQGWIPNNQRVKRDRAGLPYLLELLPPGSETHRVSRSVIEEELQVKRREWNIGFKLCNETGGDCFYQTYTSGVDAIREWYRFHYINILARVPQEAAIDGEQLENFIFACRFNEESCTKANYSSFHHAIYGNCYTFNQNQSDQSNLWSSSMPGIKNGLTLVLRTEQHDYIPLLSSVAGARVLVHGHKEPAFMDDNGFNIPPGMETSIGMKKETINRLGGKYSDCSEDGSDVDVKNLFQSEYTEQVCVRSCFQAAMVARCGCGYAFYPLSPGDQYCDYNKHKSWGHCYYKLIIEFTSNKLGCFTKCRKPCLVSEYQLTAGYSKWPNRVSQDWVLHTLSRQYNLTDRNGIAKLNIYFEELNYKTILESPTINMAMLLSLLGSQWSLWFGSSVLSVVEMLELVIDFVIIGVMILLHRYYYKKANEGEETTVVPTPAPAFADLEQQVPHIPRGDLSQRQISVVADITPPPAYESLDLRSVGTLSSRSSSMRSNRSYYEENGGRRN
T1 sequence (P51169 1-647): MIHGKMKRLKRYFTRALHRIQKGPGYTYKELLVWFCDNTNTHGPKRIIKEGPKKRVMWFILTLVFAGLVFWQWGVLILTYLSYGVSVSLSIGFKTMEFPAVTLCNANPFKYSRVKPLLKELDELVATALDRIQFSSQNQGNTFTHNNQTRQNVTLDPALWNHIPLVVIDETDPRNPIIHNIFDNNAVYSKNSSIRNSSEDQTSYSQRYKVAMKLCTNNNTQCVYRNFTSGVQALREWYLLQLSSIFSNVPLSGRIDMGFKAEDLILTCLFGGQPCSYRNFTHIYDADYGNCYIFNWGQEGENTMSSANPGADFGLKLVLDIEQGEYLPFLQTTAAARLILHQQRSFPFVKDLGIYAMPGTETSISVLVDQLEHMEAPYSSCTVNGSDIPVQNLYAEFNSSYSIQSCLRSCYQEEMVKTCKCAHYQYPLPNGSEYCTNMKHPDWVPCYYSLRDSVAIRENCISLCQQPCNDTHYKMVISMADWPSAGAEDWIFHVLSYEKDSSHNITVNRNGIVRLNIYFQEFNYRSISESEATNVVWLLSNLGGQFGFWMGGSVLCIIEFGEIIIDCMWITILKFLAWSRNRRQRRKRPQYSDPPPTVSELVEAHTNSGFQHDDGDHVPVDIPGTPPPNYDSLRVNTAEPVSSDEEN
T1 sequence (P51171 1-660): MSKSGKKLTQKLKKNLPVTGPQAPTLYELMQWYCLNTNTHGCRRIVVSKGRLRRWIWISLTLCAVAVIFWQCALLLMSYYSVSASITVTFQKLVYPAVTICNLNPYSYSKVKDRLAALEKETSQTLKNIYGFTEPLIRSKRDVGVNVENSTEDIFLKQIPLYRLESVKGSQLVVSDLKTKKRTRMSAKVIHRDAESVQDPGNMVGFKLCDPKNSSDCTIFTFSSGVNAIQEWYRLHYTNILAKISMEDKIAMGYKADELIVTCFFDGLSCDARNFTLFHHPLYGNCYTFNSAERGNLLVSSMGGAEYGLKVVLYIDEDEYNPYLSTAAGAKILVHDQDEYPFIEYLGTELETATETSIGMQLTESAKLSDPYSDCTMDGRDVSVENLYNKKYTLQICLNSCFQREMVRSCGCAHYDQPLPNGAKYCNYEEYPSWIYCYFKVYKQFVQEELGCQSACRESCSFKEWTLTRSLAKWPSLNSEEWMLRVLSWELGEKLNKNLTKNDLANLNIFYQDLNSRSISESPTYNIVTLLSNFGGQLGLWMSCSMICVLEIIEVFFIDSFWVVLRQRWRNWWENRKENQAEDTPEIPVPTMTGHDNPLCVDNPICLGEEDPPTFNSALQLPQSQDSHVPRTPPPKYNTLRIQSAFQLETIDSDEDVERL
As to the kind of experiment: Epithelial sodium channel activity after co-expression in oocytes. Type of data set: cell-based. From the text: Identification of Sgk-interacting proteins that may connect Sgk to the cellular stress response. Using the yeast two-hybrid genetic screening strategy discussed earlier, we also identified IF-1, which is a negative regulator of the mitochondrial F1 ATPase pump, as an Sgk-interacting protein. […] Furthermore, cell lysates containing endogenous Sgk induced in response to glucocorticoids, serum, hyperosmotic stress or UV radiation interacted specifically with the GST-IF1 fusion protein but not with GST alone, as assessed by anti-sgk immunoblotting. […] We disclose that in response to genotoxic or hormonal stress cues, high levels of Sgk protein are produced, which then binds to the IF1 ATPase inhibitor, thus activating the mitochondrial F1 ATPase. We have also shown that Sgk activates the epithelial sodium channel (ENaC) after their co-expression in Xenopus Laevis oocytes. […] These observations indicate that one function of Sgk is to regulate cell volume following osmotic stress of the cells. […] Intriguingly, the cytoplasmic domains of the ENaC beta subunit contain amino acid sequences surrounding a serine that indicate it is an endogenous substrate for Sgk. Previous studies have shown that both the beta and gamma subunits of EnaC are phosphorylated (Shimkets, R. A.,et al. 1998. Proc Natl Acad Sci USA 95:3301–5).

The subject of a further data set is Sgk. As to the kind of experiment: In vitro peptide kinase assay (Sgktide, [32P]ATP) of immunoprecipitated HA-Sgk. In kind it is biochemical. The conditions noted are these: mutant forms of Sgk. From the text: Sgk is a component of the PI3 kinase cascade and is directly activated by PDK1 mediated phosphorylation of threonine 256 in the activation loop. […] To develop this kinase assay, lysates from human embryo kidney 293 cells transfected to express wild type hemagglutinin (HA)-tagged Sgk (HA-Sgk) were isolated and the Sgk immunoprecipitated with HA antibodies was used to screen a synthetic peptide library for identifying potential Sgk substrates. The immunoprecipitates were extensively washed, and incubated with the peptide in the presence of [^32P]ATP in kinase buffer (Park et al 1999). Sgk phosphorylated several peptides, and the best substrate for Sgk was KKRNRRLSVA (SEQ ID NO:01), which is named Sgktide. […] This substrate specificity is generally similar to, but not identical, with the substrate specificity for Akt, which is a well characterized down stream component of the PI 3 kinase pathway.
Cotransfection of PDK1 with Sgk caused a 6-fold activation of Sgk activity, whereas, the kinase-dead form of PDK1 had no effect. […] The Ser-78 in the amino terminal domain is a third phosphorylation site and expression of the S78G Sgk mutation ablates the presence of the slowest migrating form of phosphorylated Sgk in SDS polyacrylamide gels.

A further data set has as its system mammary epithelial cells. As to the kind of experiment: Co-staining for ectopically expressed Sgk and apoptotic cells (TUNEL fluorescence assay). To be noted: after hyperosmotic stress, ectopic expression. Type of data set: cell-based.

B1: K127M: Sgk with lysine 127 in the ATP binding domain substituted with methionine; kinase dead (protein, UniProt O00141 1-431, looked up, variant K127M)
Serine/threonine-protein …: MTVKTEAAKGTLTYSRMRGMVAILIAFMKQRRMGLNDFIQKIANNSYACKHPEVQSILKISQPQEPELMNANPSPPPSPSQQINLGPSSNPHAKPSDFHFLKVIGKGSFGKVLLARHKAEEVFYAVMVLQKKAILKKKEEKHIMSERNVLLKNVKHPFLVGLHFSFQTADKLYFVLDYINGGELFYHLQRERCFLEPRARFYAAEIASALGYLHSLNIVYRDLKPENILLDSQGHIVLTDFGLCKENIEHNSTTSTFCGTPEYLAPEVLHKQPYDRTVDWWCLGAVLYEMLYGLPPFYSRNTAEMYDNILNKPLQLKPNITNSARHLLEGLLQKDRTKRLGAKDDFMEIKSHVFFSLINWDDLINKKITPPFNPNVSGPNDLRHFDPEFTEEPVPNSIGKSPDSVLVTASVKEAAEAFLGFSYAPPTDSFL
For the molecule B1, the “basal ENaC activity” value in data set [1] is given as “inhibiting the basal EnaC activity”. Also, the “kinase activity / activation of Sgk mutant” value in the data set with Sgk is listed as “kinase dead form of Sgk”. Besides, the “correlation between Sgk positive and TUNEL positive cells” value in the data set with mammary epithelial cells was about 55%.

The values above are taken from US7087392B2, “Antiproliferative SgK reagents and methods” (The Regents of the University of California, priority 1999, dated 2006).
